Assay [1] deals with mCerulean (Cer)-SERCA2a (UniProt O55143). Kind of assay: FRET or BRET; progressive acceptor photobleaching of YFP in live transfected AAV-293 cells; donor against acceptor fluorescence, a linear relationship taken as a 1:1 complex.
Assay [2] concerns the target T1, mCerulean (Cer)-SERCA2a (UniProt O55143-2 1-998).
T1 construct: SERCA2a, the predominant cardiac isoform of the sarco(endo)plasmic reticulum Ca2+-ATPase; also called SR Ca2+-ATPase; source: AAV-293 cells, transiently transfected, in live cells
The assay is described as above. To be noted: partners not purified.

This note sets out measurements from paper PMC6202051, “The DWORF micropeptide enhances contractility and prevents heart failure in a mouse model of dilated cardiomyopathy” (eLife, 2018).

Ends that are not written are not given here. YFP = yellow fluorescent protein

mCerulean (Cer)-SERCA2a (UniProt O55143), sequence (O55143 other isoform, or with tags, fused parts or gaps): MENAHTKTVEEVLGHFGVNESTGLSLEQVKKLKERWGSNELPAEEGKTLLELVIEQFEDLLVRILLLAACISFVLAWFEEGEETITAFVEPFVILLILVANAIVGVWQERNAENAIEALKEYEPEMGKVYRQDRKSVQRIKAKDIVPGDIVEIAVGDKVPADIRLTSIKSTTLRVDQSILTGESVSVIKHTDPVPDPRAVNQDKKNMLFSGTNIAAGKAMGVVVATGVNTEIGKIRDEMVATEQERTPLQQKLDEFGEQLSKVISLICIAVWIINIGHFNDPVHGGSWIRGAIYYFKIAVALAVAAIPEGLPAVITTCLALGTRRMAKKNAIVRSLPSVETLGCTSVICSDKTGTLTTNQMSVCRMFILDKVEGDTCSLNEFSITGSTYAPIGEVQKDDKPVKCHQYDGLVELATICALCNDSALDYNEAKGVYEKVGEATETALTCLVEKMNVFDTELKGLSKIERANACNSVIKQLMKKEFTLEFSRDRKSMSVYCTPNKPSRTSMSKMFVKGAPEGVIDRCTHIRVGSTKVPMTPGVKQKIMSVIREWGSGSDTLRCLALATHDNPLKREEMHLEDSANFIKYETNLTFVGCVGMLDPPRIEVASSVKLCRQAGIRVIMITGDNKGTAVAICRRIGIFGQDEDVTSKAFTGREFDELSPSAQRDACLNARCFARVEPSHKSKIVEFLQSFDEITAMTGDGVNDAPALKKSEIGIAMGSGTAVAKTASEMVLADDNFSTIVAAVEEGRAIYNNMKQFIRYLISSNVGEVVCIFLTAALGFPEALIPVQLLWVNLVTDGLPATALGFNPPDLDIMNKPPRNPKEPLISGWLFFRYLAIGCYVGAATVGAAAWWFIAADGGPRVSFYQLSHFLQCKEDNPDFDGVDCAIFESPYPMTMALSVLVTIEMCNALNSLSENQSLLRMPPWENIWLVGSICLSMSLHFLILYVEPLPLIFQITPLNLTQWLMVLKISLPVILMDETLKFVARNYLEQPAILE
T1 sequence (O55143 other isoform, or with tags, fused parts or gaps): as above

“yellow fluorescent protein (YFP)-DWORF (peptide)”: the stoichiometry N with mCerulean (Cer)-SERCA2a [1] was 1.

B1: yellow fluorescent protein (YFP)-PLN (natural protein, UniProt P61014 1-52, looked up)
chain: {YFP}-MEKVQYLTRSAIRRASTIEMPQQARQNLQNLFINFCLILICLLLICIIVMLL
modifications: cysteine pairing not given here
notes: phospholamban (PLN); In the PLN-PLN and PLN-DWORF FRET experiments one partner must have carried the donor (Cer); it may be another species (e.g. canine) in the cited FRET work; also called phospholamban; source: AAV-293 cells, transiently transfected, in live cells
Turning to B1, the “stoichiometry N” value with mCerulean (Cer)-SERCA2a [2] came to 1.
